T1: human CTGF protein (R&D, Cat No. 9190-CC) (human, UniProt P29279 27-349)
T1 construct: Bought protein; also called CTGF recombinant protein; CTGF (R&D)
T1 sequence: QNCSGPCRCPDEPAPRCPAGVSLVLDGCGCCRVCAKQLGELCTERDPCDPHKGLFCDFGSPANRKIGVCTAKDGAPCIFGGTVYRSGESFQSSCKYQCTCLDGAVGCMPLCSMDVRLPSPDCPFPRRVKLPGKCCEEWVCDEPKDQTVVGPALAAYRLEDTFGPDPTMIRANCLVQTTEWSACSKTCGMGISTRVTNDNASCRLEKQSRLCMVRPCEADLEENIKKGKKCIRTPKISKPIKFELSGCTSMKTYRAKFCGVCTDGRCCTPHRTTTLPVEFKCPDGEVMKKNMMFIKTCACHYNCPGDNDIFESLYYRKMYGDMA

T2: mouse CTGF (antigen of the Biacore assay) (mouse, UniProt P29268 26-348)
T2 construct: also called mouse CTGF protein
T2 sequence (looked up): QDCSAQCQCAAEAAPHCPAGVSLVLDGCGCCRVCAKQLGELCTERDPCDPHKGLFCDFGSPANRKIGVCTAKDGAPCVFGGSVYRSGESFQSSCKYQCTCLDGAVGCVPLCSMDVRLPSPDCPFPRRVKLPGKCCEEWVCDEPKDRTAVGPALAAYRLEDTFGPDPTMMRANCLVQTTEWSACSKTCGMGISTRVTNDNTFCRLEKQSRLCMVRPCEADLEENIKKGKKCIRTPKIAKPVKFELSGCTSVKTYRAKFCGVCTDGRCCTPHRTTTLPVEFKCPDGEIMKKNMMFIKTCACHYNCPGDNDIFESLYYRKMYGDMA

T3: human CTGF (antigen of the Biacore assays) (human, UniProt P29279 27-349)
T3 construct: also called antigen human CTGF; human CTGF protein
T3 sequence (looked up): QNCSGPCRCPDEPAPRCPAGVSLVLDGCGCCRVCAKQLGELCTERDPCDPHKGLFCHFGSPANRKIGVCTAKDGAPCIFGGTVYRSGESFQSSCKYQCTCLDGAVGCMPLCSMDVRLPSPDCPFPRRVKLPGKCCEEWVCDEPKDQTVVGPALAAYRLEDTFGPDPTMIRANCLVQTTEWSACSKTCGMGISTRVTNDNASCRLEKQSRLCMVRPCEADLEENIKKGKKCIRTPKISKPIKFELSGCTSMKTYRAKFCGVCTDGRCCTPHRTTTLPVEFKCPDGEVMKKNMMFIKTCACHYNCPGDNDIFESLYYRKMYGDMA


Experiments:
[1] = molecular target: T1, human CTGF protein (R&D, Cat No. …); assay: ELISA, plate coated with CTGF (R&D 9190-CC)
Method: The binding activity of anti-human CTGF antibody to human CTGF protein was tested by ELISA assay and Biacore. A 96-well microtiter plate was directly coated with the CTGF recombinant protein. The signal strength upon the addition of the antibody was used to determine the binding activity of the antibody to CTGF. The specific experimental procedures were as follows:
The CTGF protein (R&D, Cat No. 9190-CC) was diluted with PBS, pH 7.4 (Shanghai Yuanpei, Cat No. B320) buffer to a concentration of 0.2 μg/ml, 50 μl/well of which was added into the 96-well microtiter plate (Corning, Cat No. CLS3590-100EA), and incubated in an incubator at 37° C. for 2 hours or at 4° C. overnight (16-18 hours). The liquid was removed, 250 μl/ well blocking solution (5% skim milk (BD skim milk, Cat No.232100) diluted in PBS) was added, and incubated in an incubator at 37° C. for 3 hours or at 4° C. overnight (16-18 hours) for blocking. After the blocking was finished, the blocking solution was removed, the plate was washed for 5 times with PBST buffer (PBS containing 0.1% Tween-20, pH 7.4), 50 μl/well of various concentrations of each of the test antibodies (antibodies purified from hybridoma or humanized antibodies) diluted with sample dilution solution were added, and incubated in an incubator at 37° C. for 1 hours. After the incubation was finished, the plate was washed for 3 times with PBST, 50 μl/well of HRP-labeled goat anti-mouse secondary antibody (Jackson Immuno Research, Cat No. 115-035-003) or goat anti-human secondary antibody (Jackson Immuno Research, Cat No. 109-035-003) diluted with sample dilution solution was added, and incubated at 37° C. for 1 hour. The plate was washed for 3 times with PBST, 50 μl/well of TMB chromogenic substrate (KPL, Cat No. 52-00-03) was added, incubated at room temperature for 5-10min, and 50 μl/well of 1 M H₂SO₄ was added to stop the reaction. The absorbance value was read by a microplate reader (Molecular Devices, VERSA max) at a wavelength of 450 nm, and the data was analyzed with GraphPad Prism 5. The binding of CTGF antibody to human CTGF protein was calculated as EC50 value.

[2] = molecular target: T4, Cynomolgus CTGF-Fc (fusion protein of cynomolgus CTGF coding region with Fc) (cynomolgus); assay: ELISA, cyno-CTGF-Fc captured by anti-mFc
T4 construct: also called cyno-CTGF-mFc protein; cyno-CTGF protein with Fc tag
Method: The binding activity of anti-monkey CTGF antibody to monkey CTGF protein was tested by ELISA assay. A 96-well microtiter plate was directly coated with anti-mFc protein, and then the cyno-CTGF protein with Fc tag was bound to the plate, and then the antibody was added. The signal strength upon the addition of the antibody was used to determine the binding activity of the antibody to cyno-CTGF. The specific experimental procedures were as follows:
The anti-mFc Protein (Sigma, Cat No. M4280) was diluted with PBS, pH 7.4 (Shanghai Yuanpei, Cat No. B320) buffer to a concentration of 2 μg/ml, which was added into the 96-well microtiter plate (Corning, Cat No. CLS3590-100EA) at 50 μl/well, and incubated in an incubator at 37° C. for 2 hours. The liquid was removed, 250 μl/well blocking solution (5% skim milk (BD skim milk, Cat No.232100) diluted in PBS) was added, and incubated in an incubator at 37° C. for 3 hours or at 4° C. overnight (16-18 hours) for blocking. After the blocking was finished, the blocking solution was removed, the plate was washed for 3 times with PBST buffer (PBS containing 0.1% Tween-20, pH 7.4), 50 μl of 1 μg/ml cyno-CTGF-mFc protein was added into each well, incubated in an incubator at 37° C. for 1 hour, and then the plate was washed for 3 times with PBST buffer (PBS containing 0.1% Tween-20, pH 7.4). 50 μl/well of various concentrations of each of the test antibodies (antibodies purified from hybridoma or humanized antibodies) diluted with sample dilution solution were added, and incubated in an incubator at 37° C. for 1 hours. After the incubation was finished, the plate was washed for 3 times with PBST, 50 μl/well of HRP-labeled goat anti-mouse secondary antibody (Jackson Immuno Research, Cat No. 115-035-003) or goat anti-human secondary antibody (Jackson Immuno Research, Cat No. 109-035-003) diluted with sample dilution solution was added, and incubated at 37° C. for 1 hour. The plate was washed for 5 times with PBST, 50 μl/well of TMB chromogenic substrate (KPL, Cat No. 52-00-03) was added, incubated at room temperature for 5-10 min, and 50 μl/well of 1 M H₂SO₄ was added to stop the reaction. The absorbance value was read by a microplate reader (Molecular Devices, VERSA max) at a wavelength of 450 nm, and the data was analyzed with GraphPad Prism 5. The binding of CTGF antibody to cyno CTGF protein was calculated as EC50 value.

[3] = molecular target: T2, mouse CTGF (antigen of the Biacore …); assay: Biacore, antibody captured on Protein A, mouse CTGF in flow, 1:1 fit
Description: (§1) A certain amount of each of the test antibodies was affinity-captured with Protein A biosensor chip (Cat. # 29127556, GE), and then a certain concentration of human or mouse CTGF was allowed to flow through the surface of the chip. The reaction signals were detected in real time with Biacore instrument to generate a binding and dissociation curve. After the dissociation was completed in each cycle, the biosensor chip was washed and regenerated with Glycine-HCl regeneration solution pH 1.5 (Cat. # BR-1003-54, GE). The running buffer for the assay was 1×HBS-EP buffer solution (Cat. # BR-1001-88, GE).

[4] = molecular target: T3, human CTGF (antigen of the Biacore …); assay: Biacore, antibody captured on Protein A, CTGF in flow, 1:1 fit
Description: as §1

[5] = molecular target: T3, human CTGF (antigen of the Biacore …); assay: Biacore, CTGF immobilised, antibody 150 µg/ml then 50 nM TGF-β1 (competitor TGF-β1)
Method: First, the antigen human CTGF was immobilized onto a CMS biosensor chip (Cat. # BR-1005-30, GE) by amino coupling, with an immobilization level of 1500 RU, and then a high concentration of CTGF antibody (150 μg/ml) was allowed to flow through the surface of the chip for 150 s; 50 nM TGF-β1 protein was injected for 120 s, and the reaction signals were detected in real time with the Biacore T200 instrument to generate a binding and dissociation curve. After the dissociation was completed in each of the experimental cycles, the biosensor chip was washed and regenerated with regeneration buffer.
The resulting experimental data were statistically analyzed with GE Biacore T200 Evaluation version 3.0 software.

T4 sequence (chain, as listed by the source limits assumed): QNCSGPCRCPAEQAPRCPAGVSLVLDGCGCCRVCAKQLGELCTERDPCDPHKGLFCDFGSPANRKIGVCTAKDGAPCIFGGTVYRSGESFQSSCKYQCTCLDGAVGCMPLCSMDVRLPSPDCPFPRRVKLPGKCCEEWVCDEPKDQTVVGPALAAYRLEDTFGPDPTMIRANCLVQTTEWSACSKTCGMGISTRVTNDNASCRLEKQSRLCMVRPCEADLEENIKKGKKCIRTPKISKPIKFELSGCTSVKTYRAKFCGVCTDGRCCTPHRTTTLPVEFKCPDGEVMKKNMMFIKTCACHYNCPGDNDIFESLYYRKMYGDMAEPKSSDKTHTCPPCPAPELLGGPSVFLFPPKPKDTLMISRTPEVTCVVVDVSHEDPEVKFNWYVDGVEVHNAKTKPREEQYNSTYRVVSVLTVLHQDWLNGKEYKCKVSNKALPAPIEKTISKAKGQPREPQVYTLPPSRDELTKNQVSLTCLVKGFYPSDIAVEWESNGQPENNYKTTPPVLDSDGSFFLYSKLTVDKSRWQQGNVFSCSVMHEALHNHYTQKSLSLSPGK

| EC50 [1] [nM] | EC50 [2] [nM] | Kd [3] [nM] | koff [3] [s⁻¹] | kon [3] [M⁻¹ s⁻¹] | Kd [4] [nM] | koff [4] [s⁻¹] | kon [4] [M⁻¹ s⁻¹] | Function-blocking percentage (%) [5] [%] | Binder |
| --- | --- | --- | --- | --- | --- | --- | --- | --- | --- |
| 0.08 | 0.059 | 0.0202 | 0.000516 | 2.56e+07 | 0.0358 | 0.00102 | 2.84e+07 | – | Hu95-51yk (antibody, human IgG1, kappa, V domains shown) VH: EVQLVQSGAEVKKPGASVKVSCRASGFTFTNYAIHWVKQAPGQRLEWMGLVYPYTGGTAYNQKFKDKVTLTFDTSASTAYMELSSLRSEDTAVYYCARWGMIPGTNSYFDVWGQGTTVTVSS VL: EIVLTQSPATLSLSPGERATLSCRASSSVSYIHWYQQKPGQAPRPWIYATSNLASGIPARFSGSGSGTDYTLTISRLEPEDFAVYYCQQWNSNPWTFGGGTKVEIKR |
| 0.06 | – | 0.0363 | 0.00194 | 5.34e+07 | 0.0662 | 0.00227 | 3.43e+07 | 53.9 | Hu164-67yl (antibody, human IgG1, lambda) heavy: EVTLKESGPVLVKPTETLTLTCTVSGFSLSTFGVHWIRQPPGKGLEWLGVIWRRGGTDYNAAFMSRLTISKDTSKSQVVFTMTNMDPVDTATYYCARDGGFDYWGQGTTVTVSSASTKGPSVFPLAPSSKSTSGGTAALGCLVKDYFPEPVTVSWNSGALTSGVHTFPAVLQSSGLYSLSSVVTVPSSSLGTQTYICNVNHKPSNTKVDKKVEPKSCDKTHTCPPCPAPELLGGPSVFLFPPKPKDTLYITREPEVTCVVVDVSHEDPEVKFNWYVDGVEVHNAKTKPREEQYNSTYRVVSVLTVLHQDWLNGKEYKCKVSNKALPAPIEKTISKAKGQPREPQVYTLPPSRDELTKNQVSLTCLVKGFYPSDIAVEWESNGQPENNYKTTPPVLDSDGSFFLYSKLTVDKSRWQQGNVFSCSVMHEALHNHYTQKSLSLSPGK light: ETVVTQEPSLTVSPGGTVTLTCRSSIGAVTTSNYANWVQQKPGQAFRGLIGGTSNRAPWTPARFSGSLLGGKAALTLSGVQPEDEAEYYCALWYSTHYVFGGGTKLTVLGQPKANPTVTLFPPSSEELQANKATLVCLISDFYPGAVTVAWKADGSPVKAGVETTKPSKQSNNKYAASSYLSLTPEQWKSHRSYSCQVTHEGSTVEKTVAPTEC |
